According to doi:10.1101/2025.11.23.690026, “A systematic interactome of SET1C expands its functional landscape and identifies candidate regulatory connections” (bioRxiv, 2025):

Biological target: T1, reconstituted SET1C (S. cerevisiae, UniProt P38827 1-1080; P39706 1-426; P36104 1-329; P38123 1-315; P43132 1-505; Q03323 …)
T1 construct: Set1, S. cerevisiae (FLAG-Set1); Swd1, untagged subunit; Swd2, untagged subunit; Swd3, untagged subunit; Bre2, untagged subunit; Sdc1, untagged subunit; Spp1, untagged subunit; Shg1, untagged subunit; also called full-length SET1C; purified SET1C; source: Sf9, coinfected with baculoviruses, purified (M2 agarose); copies: + + + + + + +
Experiment: pull-down; GST-tagged Snf2 fragments (250 nM) with SET1C or C762SET1C (25 nM) on glutathione-Sepharose 4B, 0.2 mg/ml BSA, 20 mM Tris-Cl pH 7.9, 150 mM NaCl, 0.1% NP-40, 4 C, 3 hours; immunoblot
Conditions: both partners purified

- binding result: binds
B1: GST-Snf2C-AT-hook (domain or fragment, S. cerevisiae, UniProt P22082 1384-1547, looked up)
chain: ARKQRTKKEDKSEAIDGNGEIKGENIDADNDGPRINNISAEDRADTDLAMNDDDFLSKKRKAGRPRGRPKKVKLEGSENSEPPALESSPVTGDNSPSEDFMDIPKPRTAGKTSVKSARTSTRGRGRGRGRGRGRGRGRGRPPKARNGLDYVRTPAAATSPIDIR
notes: Snf2, S. cerevisiae, AT-hook region 1384-1547; also called Snf2-AT-hook; GST-Snf2-AT-hook; source: recombinant, purified GST fusion (E. coli BL21 by the general methods)
